From patent US20220213145A1 (Bicycle, published 2022) come the findings set out here.

Starred links: 1 amine or outer side, 2 acyl side, 3 side chain; linkers in the order of their positions; H or OH if unused. Positions of bridges follow the written chain, without caps; N, C: chain ends. Non-standard residues stand in square brackets, D forms with d. Primed or numbered codes have the meaning given here. No end group written: not given here. TATA′ = 1,3,5-triacryloylhexahydro-1,3,5-triazine scaffold bound to the three cysteines; TATA = O=C(CC[*:1])N1CN(C(=O)CC[*:2])CN(C(=O)CC[*:3])C1; Phe(4-Me) = Cc1ccc(C[C@H](N)C(=O)O)cc1; Ser(ΨH,HPro) = O=C(O)[C@@H]1COCN1; Nle = CCCC[C@H](N)C(=O)O; PEG3′ = not defined here; Ac5c = NC1(C(=O)O)CCCC1

The target in assay [1] is T1, Recombinant human CD137 homotrimer (R&D systems), biotinylated (human, UniProt Q07011 24-186, limits assumed, biotinylated with EZ-Link Sulfo-NHS-LC-LC-Biotin).
T1 construct: also called biotinylated CD137
As to the kind of experiment: SPR (Biacore T200), biotinylated CD137 on streptavidin. The procedure:
(§1) Biacore experiments were performed to determine kₐ (M⁻¹s⁻¹), kd (s⁻¹), KD (nM) values of peptides binding to human CD137 protein. […] The protein was desalted to remove uncoupled biotin using spin columns into PBS.
(§2) For analysis of binding, a Biacore T200 instrument was used utilising a XanTec CMD500D chip. Streptavidin was immobilized on the chip using standard amine-coupling chemistry at 25° C. with HBS-N (10 mM HEPES, 0.15 M NaCl, pH 7.4) as the running buffer. Briefly, the carboxymethyl dextran surface was activated with a 7 min injection of a 1:1 ratio of 0.4 M 1-ethyl-3-(3-dimethylaminopropyl) carbodiimide hydrochloride (EDC)/0.1 M N-hydroxy succinimide (NHS) at a flow rate of 10 μl/min. For capture of streptavidin, the protein was diluted to 0.2 mg/ml in 10 mM sodium acetate (pH 4.5) and captured by injecting 120 μl of onto the activated chip surface. Residual activated groups were blocked with a 7 min injection of 1 M ethanolamine (pH 8.5) and biotinylated CD137 captured to a level of 800-1800 RU. Buffer was changed to PBS/0.05% Tween 20 and a dilution series of the peptides was prepared in this buffer with a final DMSO concentration of 0.5%. The top peptide concentration was 500 nM or 10 μM with 6 further 3-fold (500 nm), or 2-fold (10 μM) dilutions in PBS/0.05% Tween 20. The SPR analysis was run at 25° C. at a flow rate of 90 μl/min with 60 seconds association and 100-600 seconds dissociation. After each cycle, a regeneration step (10 μl of 10 mM glycine pH 2) was employed. Data were corrected for DMSO excluded volume effects. All data were double-referenced for blank injections and reference surface using standard processing procedures and data processing and kinetic fitting were performed using Scrubber software, version 2.0c (BioLogic Software). Data were fitted using mass transport model allowing for mass transport effects where appropriate.
A general note: In SPR one partner is held on a chip, and binding of the other changes the refractive index at the surface.

The target in assay [2] is T2, human CD137 protein (direct binding assay) (human, UniProt Q07011 24-186, limits assumed).
T2 construct: Soluble CD137 protein titrated from 3 uM in the fluorescence polarisation assay; also called hCD137; TNFRSF9
As to the kind of experiment: FP direct binding. On the procedure: Affinity of the peptides of the invention for human CD137 (Ki) was determined using a fluorescence polarisation assay, in accordance with the methods disclosed in WO 2016/067035. […] CD137 protein was titrated starting at 3 μM in the same assay buffer as the peptide to assay 1 nM peptide in a total volume of 25 μL in black walled and bottomed low bind low volume 384 well plates. […] The concentrations of CD137 protein were 1 in 2 serial dilutions to give 12 different concentrations starting at 3 μM. Measurements were conducted on a BMG PHERAstar FS equipped with an FP 485 520 520 optic module at 25° C. with 200 flashes per well and a positioning delay of 0.1 second. Alternatively, the measurements were performed using Envision (PerkinElmer) equipped with FITC FP Dual Enh mirror, set to 30 flashes. Each well was measured every 5 minutes for 60 minutes. The gain used for analysis was determined for each tracer at the end of the 60 minutes where there was no protein in the well. The mP were fit to a standard 1:1 binding model with a quadratic equation to generate a Kd value.

The target of assay [3] is CD137 on Jurkat reporter cells (Promega CD137 luciferase reporter assay) (UniProt Q07011 24-255, limits assumed). The assay is described as follows: cell-based or functional assay.
Chain of CD137 on Jurkat reporter cells (Promega CD137 luciferase reporter assay) (Q07011 24-255 limits assumed): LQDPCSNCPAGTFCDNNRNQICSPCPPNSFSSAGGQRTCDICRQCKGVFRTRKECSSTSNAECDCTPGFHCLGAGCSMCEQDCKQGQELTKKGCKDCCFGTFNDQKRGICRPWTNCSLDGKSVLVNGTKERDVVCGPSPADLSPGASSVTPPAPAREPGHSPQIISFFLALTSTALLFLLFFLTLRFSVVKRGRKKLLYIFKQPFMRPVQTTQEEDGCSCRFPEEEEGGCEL
The target in assay [4] is T1, Recombinant human CD137 homotrimer (R&D …). The assay is described as follows: SPR (Biacore T200), biotinylated CD137 on streptavidin (n = 2). The procedure: as §1
as §2, with “The SPR analysis was run at 25° C. at a flow rate of 90 μl/min with 60 seconds association and 100-600 seconds dissociation. After each cycle, a regeneration step (10 μl of 10 mM glycine pH 2) was employed. Data were corrected for DMSO excluded volume effects. All data were double-referenced for blank injections and reference surface using standard processing procedures and data processing and kinetic fitting were performed using Scrubber software, version 2.0c (BioLogic Software). Data were fitted using mass transport model allowing for mass transport effects where appropriate.” left out

B1: BCY8676 (peptide)
peptide: ACIEEGQYCFXDPYXCA
modifications: [Ac]ACIEEGQYCF[Abu]DPY[Nle]CA; cyclised on TATA
notes: also called Ac-(74-01-04) Abu8 Nle12
The term Kd denotes the constant that tells how readily two partners part at equilibrium. On to B1, for which the Kd in assay [1] stood at 1000 nM.

B2: BCY7958 (peptide)
peptide: Ac-ACI[Ser(ΨH,HPro)]EGQYCFADPY[Nle]CA
modifications: linker 2-9-16 via TATA′
notes: also called Ac-(74-01-04) Oxa2 Nle12
On to B2, for which the Kd in assay [1] came to 20 nM.

B3: BCY7210 (peptide)
peptide: ACIEEGQYCFADPYXCA
modifications: [PEG3]ACIEEGQYCFADPY[tBuAla]CA; fluorescein-labelled; cyclised on TATA
notes: also called [PEG3]-(74-01-04) tBuAla12
B3: the Kd in assay [2] amounted to 70 nM.

B4: BCY8670 (peptide)
peptide: Ac-ACIEEGQ[Phe(4-Me)]CFADPY[Nle]CA
modifications: linker 2-9-16 via TATA
notes: also called Ac-(74-01-04) 4MePhe6 Nle12
Turning to B4, the Kd in assay [1] turned out to be 1000 nM.

B5: BCY7166 (peptide)
peptide: [PEG3′]ACIEE[dF]QYCFADPY[Nle]CA
modifications: linker 3-10-17 via TATA; also: fluorescein-labelled
notes: also called [PEG3]-(74-01-04) D-Phe4 Nle12
Molecule B5 came in with a Kd in assay [2] of 10 nM.

B6: BCY7290 (peptide)
peptide: [PEG3′]ACIEEGQYCFAAPY[Nle]CA
modifications: linker 3-10-17 via TATA; also: fluorescein-labelled
notes: also called [PEG3]-(74-01-04) Ala9 Nle12
For the molecule B6, the Kd in assay [2] is greater than 3000 nM.

B7: BCY8217 (peptide)
peptide: ACIEEGQYCFADPYXCA
modifications: ACIEEGQYCF[dA]DPY[Nle]CA; cyclised on TATA
notes: also called A-(74-01-04)-A D-Ala8 Nle12
As for B7, the Kd in assay [1] came out at 500 nM.

B8: BCY8658 (peptide)
peptide: Ac-AC[Ac5c]EEGQYCFADPY[Nle]CA
modifications: linker 2-9-16 via TATA
notes: also called Ac-(74-01-04) Ac5c1 Nle12
With B8, the dissociation constant Kd in assay [1] worked out at 200 nM.

B9: BCY592 (peptide)
peptide: ACIEEGQYCFADPYMCA
modifications: linker 2-9-16 via TATA
As to B9, the “IC50 (% inhibition of CD137L-induced NF-kB luciferase activity in CD137 Jurkat reporter cells)” value in assay [3] turned out to be 3960 nM.

B10: BCY7961 (peptide)
peptide: Ac-ACIPE[dA]PYCFADPY[Nle]CA
modifications: linker 2-9-16 via TATA′
notes: also called Ac-(74-01-04) Pro2 DAla4 Pro5 Nle12
Turning to B10, in assay [1], the Kd was determined as 10 nM.

B11: BCY8665 (peptide)
peptide: Ac-ACIEE[Ac5c]QYCFADPY[Nle]CA
modifications: linker 2-9-16 via TATA
notes: also called Ac-(74-01-04) Ac5c4 Nle12
Take B11: in assay [4], the dissociation constant (Kd) was 200 nM.
